# Molecular target: GST protein (negative control, from pGEX2TK) (UniProt P08515 1-218 = GST)
# Experiment: solid phase overlay assay, 32P-labeled GST-PPP2R2C probe on blotted protein
# Procedure: After 4.5 hr of incubation, the membrane was washed with Hyb75 buffer, 1 mM DTT, 1% (w/v) non-fat dry milk three times for 15 min at room temperature. The blots were analyzed by autoradiography.
# Sequence of GST protein (negative control, from pGEX2TK) (P08515 whole entry): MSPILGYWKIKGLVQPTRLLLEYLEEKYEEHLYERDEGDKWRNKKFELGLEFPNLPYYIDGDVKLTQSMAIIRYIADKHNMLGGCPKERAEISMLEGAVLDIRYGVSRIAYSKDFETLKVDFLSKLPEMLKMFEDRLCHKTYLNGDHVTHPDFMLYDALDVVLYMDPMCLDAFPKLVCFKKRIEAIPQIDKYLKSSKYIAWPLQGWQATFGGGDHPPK
binder,measurement,value
"GST-PPP2R2C radiolabeled recombinant protein (other, 32P-phosphorylated in vitro with PKA and [32P]-γATP (site not stated), Insert is nucleotides 55-1540 of AF086924 (the bait construct starts at 52), so the first codon may be missing; also called PP2A/Bγ; protein encoded by pGEX-2TK-PPP2R2C; not shown: glutathione S-transferase encoded by the pGEX-2TK vector (Amersham Pharmacia Biotech)) GEDTDTRKINHSFLRDHSYVTEADIISTVEFNHTGELLATGDKGGRVVIFQREPESKNAPHSQGDYDVYSTFQSHEPEFDYLKSLEIEEKINKIKWLPQQNAAHSLLSTNDKTIKLWKITERDKRPEGYNLKDEEGKLKDLSTVTSLQVPVLKPMDLMVEVSPRRIFANGHTYHINSISVNSDCETYMSADDLRINLWHLAITDRSFNIVDIKPANMEDLTEVITASEFHPHHCNLFVYSSSKGSLRLCDMPAAALCDKHSKLFEEPEDPSNRSFFSEIISSVSDVKFSHSDRYMLTRDYLTVKVWDLNMEARPIETYQVHDYLRSKLCSLYENDCIFDKFECAWNGSDSVIMTGAYNNFFRMFDRNTKRDVTLEASRESSKPRAVLKPRRVCVGGKRRRDDISVDSLDFTKKILHTAWHPAENIIAIAATNNLYIFQDKVNSDMH",binding result,"no binding (tested: 100 ng, 10 ng and 0.1 ng of GST loaded)"
